Measurements taken from patent US20260250320A1, “LIPIDATED PEPTIDE INHIBITORS OF INTERLEUKIN-23 RECEPTOR” (Janssen Pharmaceutica NV, priority 2023, published 2026).
*1 amine or outer side, *2 acyl side, *3 side chain or, on linkers, in order; H or OH if unused. Bridges are numbered along the chain shown (N, C = ends). Primed or numbered codes have the meaning given here. Side-chain parts run from the residue outwards. [ ]: non-standard residue; d: D form. PEG2′ = PEG2 spacer unit (not further defined); Trp(7-Me) = Cc1cccc2c(C[C@H](N)C(=O)O)c[nH]c12; γGlu = O=C(O)[C@H](CCC(=O)[*:2])N[*:1]; 2Nal = N[C@@H](Cc1ccc2ccccc2c1)C(=O)O; AEF = NCCOc1ccc(C[C@H](N)C(=O)O)cc1; 3Pal = N[C@@H](Cc1cccnc1)C(=O)O; NMeK = CN[C@@H](CCCCN)C(=O)O; Pen = CC(C)(S)[C@H](N)C(=O)O; PEG4′ = not defined here; dAEF′ = not defined here; Thp = NC1(C(=O)O)CCOCC1; Sar = CNCC(=O)O

T1: interleukin-23 receptor (IL-23R) (UniProt Q5VWK5 24-629, limits assumed)
T1 sequence (looked up): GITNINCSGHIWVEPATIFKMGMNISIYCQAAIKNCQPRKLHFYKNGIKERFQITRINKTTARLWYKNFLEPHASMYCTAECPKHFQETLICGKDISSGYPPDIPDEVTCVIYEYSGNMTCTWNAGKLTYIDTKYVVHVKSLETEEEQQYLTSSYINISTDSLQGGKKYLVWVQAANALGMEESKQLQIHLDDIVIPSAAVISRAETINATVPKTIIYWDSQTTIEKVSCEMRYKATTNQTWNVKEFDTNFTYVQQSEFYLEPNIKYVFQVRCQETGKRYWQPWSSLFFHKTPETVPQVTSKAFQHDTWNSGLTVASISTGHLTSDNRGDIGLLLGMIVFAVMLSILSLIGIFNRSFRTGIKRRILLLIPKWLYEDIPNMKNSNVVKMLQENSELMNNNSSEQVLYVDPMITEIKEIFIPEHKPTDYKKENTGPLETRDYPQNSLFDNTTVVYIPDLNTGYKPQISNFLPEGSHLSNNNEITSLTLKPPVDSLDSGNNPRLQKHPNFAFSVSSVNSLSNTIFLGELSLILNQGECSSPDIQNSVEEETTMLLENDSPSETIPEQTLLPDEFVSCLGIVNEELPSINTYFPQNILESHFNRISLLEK

B1: SEQ ID NO: 150 (peptide)
peptide: XNTXXXXXXENXXK
modifications: not fully specified; MeCO-Pen(3)-N-T-7MeW-K(Ac)-Pen(3)-AEF-2Nal-THP-E-N-3Pya-Sar-K(PEG2PEG2gEC18OH)-CONH(PEG3a)
B2: SEQ ID NO: 161 (peptide)
peptide: XNTXXXXXXENXXK
modifications: MeCO-Pen(3)-N-T-7MeW-K(Ac)-Pen(3)-AEF-2Nal-THP-E-N-3Pya-Sar-K(PEG12gEC18OH)-CONH2
B3: SEQ ID NO: 3 (peptide)
peptide: XNTXXXXXXENXXK
modifications: MeCO-Pen(3)-N-T-7MeW-K(Ac)-Pen(3)-AEF-2Nal-THP-E-N-3Pya-Sar-K(PEG2NMePEG2NMegENMeC18Tetrazole)-CONH2
B4: SEQ ID NO: 21 (peptide)
peptide: Ac-[dR][Pen]NT[Trp(7-Me)]K(Ac)[Pen][AEF][2Nal][Thp]K([PEG2′-PEG2′-γGlu-C18OH])N[3Pal]X-NH2
modifications: disulfide 2-7 (inferred); not fully specified (residue 14); printed as MeCO-r-Pen(3)-N-T-7MeW-K(Ac)-Pen(3)-AEF-2Nal-THP-K(PEG2PEG2gEC18OH)-N-3Pya-NMeK(d)-CONH2
B5: SEQ ID NO: 22 (peptide)
peptide: Ac-[dR][Pen]NT[Trp(7-Me)]K(Ac)[Pen][dAEF′][2Nal][Thp]K([PEG2′-PEG2′-γGlu-C18OH])N[3Pal][Sar]-NH2
modifications: disulfide 2-7 (inferred); reading uncertain; also: printed as MeCO-r-Pen(3)-N-T-7MeW-K(Ac)-Pen(3)-AEF(d)-2Nal-THP-K(PEG2PEG2gEC18OH)-N-3Pya-Sar-CONH2
B6: SEQ ID NO: 26 (peptide)
peptide: Ac-K[Pen]NT[Trp(7-Me)]K(Ac)[Pen][AEF][2Nal][Thp]EN[3Pal][Sar]-NH2
modifications: disulfide 2-7 (inferred); not fully specified (residue 1); printed as MeCO-k(PEG12gEC20OH)-Pen(3)-N-T-7MeW-K(Ac)-Pen(3)-AEF-2Nal-THP-E-N-3Pya-Sar-CONH2
B7: SEQ ID NO: 27 (peptide)
peptide: XNTXXXXXXENXXK
modifications: MeCO-Pen(3)-N-T-7MeW-K(Ac)-Pen(3)-AEF-2Nal-THP-E-N-3Pya-Sar-K(PEG2PEG2gEC18OH)-CONH2
B8: SEQ ID NO: 30 (peptide)
peptide: Ac-[dR][Pen]XT[Trp(7-Me)]K(Ac)[Pen][AEF][2Nal][Thp]EN[3Pal][NMeK]([PEG2′-PEG2′-γGlu-C18OH])-NH2
modifications: disulfide 2-7 (inferred); not fully specified (residue 3); printed as MeCO-r-Pen(3)-K(d)-T-7MeW-K(Ac)-Pen(3)-AEF-2Nal-THP-E-N-3Pya-NMeK(PEG2PEG2gEC18OH)-CONH2
B9: SEQ ID NO: 33 (peptide)
peptide: Ac-[dK]([PEG2′-PEG2′-γGlu-C18OH])[Pen]NT[Trp(7-Me)]K(Ac)[Pen][AEF][2Nal][Thp]XN[3Pal][Sar]-NH2
modifications: disulfide 2-7 (inferred); not fully specified (residue 11); printed as MeCO-k(PEG2PEG2gEC18OH)-Pen(3)-N-T-7MeW-K(Ac)-Pen(3)-AEF-2Nal-THP-K(d)-N-3Pya-Sar-CONH2
B10: SEQ ID NO: 34 (peptide)
peptide: Ac-[dK]([PEG2′-PEG2′-γGlu-C18OH])[Pen]NT[Trp(7-Me)]X[Pen][AEF][2Nal][Thp]EN[3Pal][Sar]-NH2
modifications: disulfide 2-7 (inferred); not fully specified (residue 6); printed as MeCO-k(PEG2PEG2gEC18OH)-Pen(3)-N-T-7MeW-K(d)-Pen(3)-AEF-2Nal-THP-E-N-3Pya-Sar-CONH2
B11: SEQ ID NO: 35 (peptide)
peptide: Ac-[dK]([PEG2′-PEG2′-γGlu-C18OH])[Pen]XT[Trp(7-Me)]K(Ac)[Pen][AEF][2Nal][Thp]EN[3Pal][Sar]-NH2
modifications: disulfide 2-7 (inferred); not fully specified (residue 3); printed as MeCO-k(PEG2PEG2gEC18OH)-Pen(3)-K(d)-T-7MeW-K(Ac)-Pen(3)-AEF-2Nal-THP-E-N-3Pya-Sar-CONH2
B12: SEQ ID NO: 37 (peptide)
peptide: Ac-[dR][Pen]XT[Trp(7-Me)]K(Ac)[Pen][AEF][2Nal][Thp]K([PEG2′-PEG2′-γGlu-C18OH])N[3Pal][Sar]-NH2
modifications: disulfide 2-7 (inferred); not fully specified (residue 3); printed as MeCO-r-Pen(3)-K(d)-T-7MeW-K(Ac)-Pen(3)-AEF-2Nal-THP-K(PEG2PEG2gEC18OH)-N-3Pya-Sar-CONH2

These binders were tested against T1, interleukin-23 receptor (IL-23R) (assay: cell-based or functional assay).

Row | Binder | IC50, IL23R reporter assay
1 | B1 | ≥ 0.5 µM
2 | B2 | < 0.05 µM
3 | B3 | < 0.05 µM
4 | Ac-[dR][Pen]NT[Trp(7-Me)]K(Ac)[Pen][AEF][2Nal][Thp]K([PEG4′-AcCl])N[3Pal][Sar]K([PEG2′-PEG2′-γGlu-C18OH])-NH2 (disulfide 2-7 (inferred)) [SEQ ID NO: 4] | < 0.05 µM
5 | B4 | < 0.05 µM
6 | B5 | < 0.05 µM
7 | B6 | < 0.05 µM
8 | B7 | < 0.05 µM
9 | B8 | < 0.05 µM
10 | B9 | < 0.05 µM
11 | B10 | < 0.05 µM
12 | B11 | < 0.05 µM
13 | B12 | < 0.05 µM

Molecular target: T1, interleukin-23 receptor (IL-23R)
Assay: cell-based or functional assay
Remark: another data set of the same source

Row | Binder | PBMC pSTAT3 IC50
14 | B1 | ≥ 5 nM
15 | B2 | < 0.5 nM
16 | B3 | < 0.5 nM
17 | Ac-[dR][Pen]NT[Trp(7-Me)]K(Ac)[Pen][AEF][2Nal][Thp]K([PEG4′-AcCl])N[3Pal][Sar]K([PEG2′-PEG2′-γGlu-C18OH])-NH2 (disulfide 2-7 (inferred)) [SEQ ID NO: 4] | < 0.5 nM
18 | B4 | < 0.5 nM
19 | B5 | < 0.5 nM
20 | B6 | < 0.5 nM
21 | B7 | < 0.5 nM
22 | B8 | < 0.5 nM
23 | B9 | < 0.5 nM
24 | B10 | < 0.5 nM
25 | B11 | < 0.5 nM
26 | B12 | < 0.5 nM
